This note sets out measurements from paper PMC12657218, “The Panoptes system uses decoy cyclic nucleotides to defend against phage” (Nature, 2025).

A value given as a limit tells only on which side of the number the result lay.

Experiment [1] concerns the target OptS from Klebsiella pneumoniae KP67 (minimal CRISPR polymerase, mCpol) (Klebsiella pneumoniae KP67). Briefly: mass photometry; KpOptS at 50 nM in 20 mM HEPES pH 7.5, 250 mM KCl, room temperature; β-amylase as calibration standard.
Experiment [2] shares this target. Briefly: crystal structure; apo KpOptS, 1.75 Å, four copies in the asymmetric unit; crystals from 8% PEG 4000, hanging drop, room temperature.
Experiment [3] shares this target. Briefly: SEC; HiLoad 16/600 Superdex 200 pg, 20 mM HEPES pH 7.5, 250 mM KCl, 1 mM TCEP-KOH; elution volume compared with molecular weight standards. On the technique in general: In gel filtration, larger molecules generally elute earlier.
The target in experiment [4] is T1, VnOptS (Vibrio navarrensis, UniProt A0A099LXT1).
T1 construct: gene EA26_14275; N-terminal His6 tag with or without hSUMO2; expressed in E. coli
The format is biochemical. The note with it: MnCl2 1 mM, MgSO4 10 mM, 20 mM HEPES-KOH pH 7.4, 100 mM NaCl; with ATP, GTP, UTP, CTP; from ATP and GTP.

The target of experiment [5] is T2, Acb2 (Tequatrovirus T4, UniProt P13314).
T2 construct: full-length, N-terminal 6xHis-hSUMO2 tag cleaved with hSENP2; expressed in E. coli
T2 sequence (P13314 1-88): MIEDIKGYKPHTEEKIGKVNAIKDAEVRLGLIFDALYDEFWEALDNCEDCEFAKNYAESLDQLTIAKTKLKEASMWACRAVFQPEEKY
As to the kind of experiment: isothermal titration calorimetry. The note with it: read-out: apparent Kd. Type of experiment: binding. (In general: ITC needs no label: the signal is the heat of the interaction.)

With “OptS from Klebsiella pneumoniae KP67 (minimal CRISPR polymerase, mCpol) (enzyme)”, the values for the stoichiometry N in experiment [1], in experiment [2] and in experiment [3] were 4, 4 and over 2, respectively.

For `Nc1nc2c(ncn2[C@@H]2O[C@@H]3COP(=O)(O)O[C@@H]4[C@H](O)[C@@H](COP(=O)(O)O[C@H]3[C@H]2O)O[C@H]4n2cnc3c(N)ncnc32)c(=O)[nH]1` [3′,2′-cGAMP], the “HPLC and MS of products” value in experiment [4] is “The most abundant product of the in vitro reactions was a linkage isomer of cyclic GMP-AMP”.

Turning to `Nc1ncnc2c1ncn2[C@@H]1O[C@@H]2COP(=O)(O)O[C@@H]3[C@H](O)[C@@H](COP(=O)(O)O[C@H]2[C@H]1O)O[C@H]3n1cnc2c(N)ncnc21` [2′,3′-c-di-AMP], the Kd in experiment [5] was about 62 nM.
